{
  "source": "paper PMC10811340",
  "key": {"[1]": {"target": "Milano tail tube protein, gp21 (Agrobacterium tumefaciens bacteriophage Milano)", "test": "cryo-EM structure; extended (pre-attachment) tail of purified native Milano virions; curved tail segments reconstructed with no imposed symmetry; the straight baseplate-proximal segment was extracted from the baseplate junction structure"}, "[2]": {"target": "Milano Short Tail Fiber (STF), gp31 (Agrobacterium tumefaciens bacteriophage Milano)", "test": "cryo-EM structure; baseplate junction of purified native Milano virions in the extended state, single particle analysis with C3 symmetry, ~3.2 Å; distal parts of the receptor-binding proteins and the garland only rigid-body fitted with AlphaFold models"}, "[3]": {"target": "Milano Tail Spike Protein (TSP), gp124 (Agrobacterium tumefaciens bacteriophage Milano)", "test": "cryo-EM structure; baseplate junction of purified native Milano virions in the extended state, single particle analysis with C3 symmetry, ~3.2 Å; distal parts of the receptor-binding proteins and the garland only rigid-body fitted with AlphaFold models"}},
  "data": [
    {"substance": "Milano tail tube protein, gp21 (natural protein)", "values": [
      {"measurement": "stoichiometry N", "setting": "[1]", "value": 6}
    ]},
    {"substance": "Milano Short Tail Fiber (STF), gp31 (natural protein)", "values": [
      {"measurement": "stoichiometry N", "setting": "[2]", "value": 3}
    ]},
    {"substance": "Milano Tail Spike Protein (TSP), gp124 (natural protein)", "values": [
      {"measurement": "stoichiometry N", "setting": "[3]", "value": 3}
    ]}
  ]
}
